US20240190920A1 (SHENZHEN RESEARCH INSTITUTE OF THE HONG KONG POLYTECHNIC …, published 2024)
Bridge positions count the residues as written; N and C are the ends. Square brackets hold non-standard residues; d marks the D form. R8 = C=CCCCCCC[C@@](C)(N)C(=O)O; S5 = C=CCCC[C@](C)(N)C(=O)O

Molecular target: T1, Beclin 1 coiled coil domain (human Beclin 1, residues 176-268) (human, UniProt Q14457 176-268)
T1 construct: range 176-268; also called Beclin 1 coiled coil domain protein
Assay: ITC, peptide titrated into Beclin 1 coiled coil domain, 25 C, one-site model

T1 sequence (Q14457 176-268 limits assumed): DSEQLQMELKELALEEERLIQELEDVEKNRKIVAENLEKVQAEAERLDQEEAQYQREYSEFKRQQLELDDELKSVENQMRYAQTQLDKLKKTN

B1: i7-01s-57 (Ac-[Tat]-RRIQ(R8)MEDVLK(S5)RKR-NH2) (peptide)
peptide: Ac-YGRKKRRQRRRRRIQ[R8]MEDVLK[S5]RKR-NH2
modifications: staple 16-23
SMILES: CC[C@H](C)[C@H](NC(=O)[C@H](CCCNC(=N)N)NC(=O)[C@H](CCCNC(=N)N)NC(=O)[C@H](CCCNC(=N)N)NC(=O)[C@H](CCCNC(=N)N)NC(=O)[C@H](CCCNC(=N)N)NC(=O)[C@H](CCC(N)=O)NC(=O)[C@H](CCCNC(=N)N)NC(=O)[C@H](CCCNC(=N)N)NC(=O)[C@H](CCCCN)NC(=O)[C@H](CCCCN)NC(=O)[C@H](CCCNC(=N)N)NC(=O)CNC(=O)[C@H](Cc1ccc(O)cc1)NC(C)=O)C(=O)N[C@@H](CCC(N)=O)C(=O)N[C@]1(C)CCCCCCC=CCCC[C@@](C)(C(=O)N[C@@H](CCCNC(=N)N)C(=O)N[C@@H](CCCCN)C(=O)N[C@@H](CCCNC(=N)N)C(N)=O)NC(=O)[C@H](CCCCN)NC(=O)[C@H](CC(C)C)NC(=O)[C@H](C(C)C)NC(=O)[C@H](CC(=O)O)NC(=O)[C@H](CCC(=O)O)NC(=O)[C@H](CCSC)NC1=O
Kd: 2200 nM

B2: Tat-SP4 (Ac-[Tat]-RLISEL(R8)DREKQR(S5)A-NH2) (peptide)
peptide: Ac-YGRKKRRQRRRRLISEL[R8]DREKQR[S5]A-NH2
modifications: staple 18-25
Kd: 3210 nM

B3: i7-01s-02 (Ac-[Tat]-RLIQ(R8)REDREK(S5)RAV-NH2) (peptide)
peptide: Ac-YGRKKRRQRRRRLIQ[R8]REDREK[S5]RAV-NH2
modifications: staple 16-23
SMILES: CC[C@H](C)[C@H](NC(=O)[C@H](CC(C)C)NC(=O)[C@H](CCCNC(=N)N)NC(=O)[C@H](CCCNC(=N)N)NC(=O)[C@H](CCCNC(=N)N)NC(=O)[C@H](CCCNC(=N)N)NC(=O)[C@H](CCC(N)=O)NC(=O)[C@H](CCCNC(=N)N)NC(=O)[C@H](CCCNC(=N)N)NC(=O)[C@H](CCCCN)NC(=O)[C@H](CCCCN)NC(=O)[C@H](CCCNC(=N)N)NC(=O)CNC(=O)[C@H](Cc1ccc(O)cc1)NC(C)=O)C(=O)N[C@@H](CCC(N)=O)C(=O)N[C@]1(C)CCCCCCC=CCCC[C@@](C)(C(=O)N[C@@H](CCCNC(=N)N)C(=O)N[C@@H](C)C(=O)N[C@H](C(N)=O)C(C)C)NC(=O)[C@H](CCCCN)NC(=O)[C@H](CCC(=O)O)NC(=O)[C@H](CCCNC(=N)N)NC(=O)[C@H](CC(=O)O)NC(=O)[C@H](CCC(=O)O)NC(=O)[C@H](CCCNC(=N)N)NC1=O
Kd: 860 nM

B4: i7-01s-64 (Ac-[Tat]-RLII(R8)QEDVEK(S5)RKR-NH2) (peptide)
peptide: Ac-YGRKKRRQRRRRLII[R8]QEDVEK[S5]RKR-NH2
modifications: staple 16-23
SMILES: CC[C@H](C)[C@H](NC(=O)[C@H](CC(C)C)NC(=O)[C@H](CCCNC(=N)N)NC(=O)[C@H](CCCNC(=N)N)NC(=O)[C@H](CCCNC(=N)N)NC(=O)[C@H](CCCNC(=N)N)NC(=O)[C@H](CCC(N)=O)NC(=O)[C@H](CCCNC(=N)N)NC(=O)[C@H](CCCNC(=N)N)NC(=O)[C@H](CCCCN)NC(=O)[C@H](CCCCN)NC(=O)[C@H](CCCNC(=N)N)NC(=O)CNC(=O)[C@H](Cc1ccc(O)cc1)NC(C)=O)C(=O)N[C@H](C(=O)N[C@]1(C)CCCCCCC=CCCC[C@@](C)(C(=O)N[C@@H](CCCNC(=N)N)C(=O)N[C@@H](CCCCN)C(=O)N[C@@H](CCCNC(=N)N)C(N)=O)NC(=O)[C@H](CCCCN)NC(=O)[C@H](CCC(=O)O)NC(=O)[C@H](C(C)C)NC(=O)[C@H](CC(=O)O)NC(=O)[C@H](CCC(=O)O)NC(=O)[C@H](CCC(N)=O)NC1=O)[C@@H](C)CC
Kd: 356000 nM

B5: i7-01s-37 (Ac-[Tat]-RLIQ(R8)KEDVEK(S5)RKR-NH2) (peptide)
peptide: Ac-YGRKKRRQRRRRLIQ[R8]KEDVEK[S5]RKR-NH2
modifications: staple 16-23
SMILES: CC[C@H](C)[C@H](NC(=O)[C@H](CC(C)C)NC(=O)[C@H](CCCNC(=N)N)NC(=O)[C@H](CCCNC(=N)N)NC(=O)[C@H](CCCNC(=N)N)NC(=O)[C@H](CCCNC(=N)N)NC(=O)[C@H](CCC(N)=O)NC(=O)[C@H](CCCNC(=N)N)NC(=O)[C@H](CCCNC(=N)N)NC(=O)[C@H](CCCCN)NC(=O)[C@H](CCCCN)NC(=O)[C@H](CCCNC(=N)N)NC(=O)CNC(=O)[C@H](Cc1ccc(O)cc1)NC(C)=O)C(=O)N[C@@H](CCC(N)=O)C(=O)N[C@]1(C)CCCCCCC=CCCC[C@@](C)(C(=O)N[C@@H](CCCNC(=N)N)C(=O)N[C@@H](CCCCN)C(=O)N[C@@H](CCCNC(=N)N)C(N)=O)NC(=O)[C@H](CCCCN)NC(=O)[C@H](CCC(=O)O)NC(=O)[C@H](C(C)C)NC(=O)[C@H](CC(=O)O)NC(=O)[C@H](CCC(=O)O)NC(=O)[C@H](CCCCN)NC1=O
Kd: 2410 nM

B6: i7-01s-70 (Ac-[Tat]-RLIQ(R8)KGDVEL(S5)RKR-NH2) (peptide)
peptide: Ac-YGRKKRRQRRRRLIQ[R8]KGDVEL[S5]RKR-NH2
modifications: staple 16-23
SMILES: CC[C@H](C)[C@H](NC(=O)[C@H](CC(C)C)NC(=O)[C@H](CCCNC(=N)N)NC(=O)[C@H](CCCNC(=N)N)NC(=O)[C@H](CCCNC(=N)N)NC(=O)[C@H](CCCNC(=N)N)NC(=O)[C@H](CCC(N)=O)NC(=O)[C@H](CCCNC(=N)N)NC(=O)[C@H](CCCNC(=N)N)NC(=O)[C@H](CCCCN)NC(=O)[C@H](CCCCN)NC(=O)[C@H](CCCNC(=N)N)NC(=O)CNC(=O)[C@H](Cc1ccc(O)cc1)NC(C)=O)C(=O)N[C@@H](CCC(N)=O)C(=O)N[C@]1(C)CCCCCCC=CCCC[C@@](C)(C(=O)N[C@@H](CCCNC(=N)N)C(=O)N[C@@H](CCCCN)C(=O)N[C@@H](CCCNC(=N)N)C(N)=O)NC(=O)[C@H](CC(C)C)NC(=O)[C@H](CCC(=O)O)NC(=O)[C@H](C(C)C)NC(=O)[C@H](CC(=O)O)NC(=O)CNC(=O)[C@H](CCCCN)NC1=O
Kd: 2140 nM

B7: i7-01s-75 (Ac-[Tat]-RLIY(R8)MEDVEK(S5)RKR-NH2) (peptide)
peptide: Ac-YGRKKRRQRRRRLIY[R8]MEDVEK[S5]RKR-NH2
modifications: staple 16-23
SMILES: CC[C@H](C)[C@H](NC(=O)[C@H](CC(C)C)NC(=O)[C@H](CCCNC(=N)N)NC(=O)[C@H](CCCNC(=N)N)NC(=O)[C@H](CCCNC(=N)N)NC(=O)[C@H](CCCNC(=N)N)NC(=O)[C@H](CCC(N)=O)NC(=O)[C@H](CCCNC(=N)N)NC(=O)[C@H](CCCNC(=N)N)NC(=O)[C@H](CCCCN)NC(=O)[C@H](CCCCN)NC(=O)[C@H](CCCNC(=N)N)NC(=O)CNC(=O)[C@H](Cc1ccc(O)cc1)NC(C)=O)C(=O)N[C@@H](Cc1ccc(O)cc1)C(=O)N[C@]1(C)CCCCCCC=CCCC[C@@](C)(C(=O)N[C@@H](CCCNC(=N)N)C(=O)N[C@@H](CCCCN)C(=O)N[C@@H](CCCNC(=N)N)C(N)=O)NC(=O)[C@H](CCCCN)NC(=O)[C@H](CCC(=O)O)NC(=O)[C@H](C(C)C)NC(=O)[C@H](CC(=O)O)NC(=O)[C@H](CCC(=O)O)NC(=O)[C@H](CCSC)NC1=O
Kd: 1290 nM

B8: i7-01s-58 (Ac-[Tat]-RLIE(R8)REIVEK(S5)RKR-NH2) (peptide)
peptide: Ac-YGRKKRRQRRRRLIE[R8]REIVEK[S5]RKR-NH2
modifications: staple 16-23
SMILES: CC[C@H](C)[C@H](NC(=O)[C@H](CC(C)C)NC(=O)[C@H](CCCNC(=N)N)NC(=O)[C@H](CCCNC(=N)N)NC(=O)[C@H](CCCNC(=N)N)NC(=O)[C@H](CCCNC(=N)N)NC(=O)[C@H](CCC(N)=O)NC(=O)[C@H](CCCNC(=N)N)NC(=O)[C@H](CCCNC(=N)N)NC(=O)[C@H](CCCCN)NC(=O)[C@H](CCCCN)NC(=O)[C@H](CCCNC(=N)N)NC(=O)CNC(=O)[C@H](Cc1ccc(O)cc1)NC(C)=O)C(=O)N[C@@H](CCC(=O)O)C(=O)N[C@]1(C)CCCCCCC=CCCC[C@@](C)(C(=O)N[C@@H](CCCNC(=N)N)C(=O)N[C@@H](CCCCN)C(=O)N[C@@H](CCCNC(=N)N)C(N)=O)NC(=O)[C@H](CCCCN)NC(=O)[C@H](CCC(=O)O)NC(=O)[C@H](C(C)C)NC(=O)[C@H]([C@@H](C)CC)NC(=O)[C@H](CCC(=O)O)NC(=O)[C@H](CCCNC(=N)N)NC1=O
Kd: 610 nM

B9: i7-01s-45 (Ac-[Tat]-RLKQ(R8)LEDVEK(S5)RKR-NH2) (peptide)
peptide: Ac-YGRKKRRQRRRRLKQ[R8]LEDVEK[S5]RKR-NH2
modifications: staple 16-23
SMILES: CC(=O)N[C@@H](Cc1ccc(O)cc1)C(=O)NCC(=O)N[C@@H](CCCNC(=N)N)C(=O)N[C@@H](CCCCN)C(=O)N[C@@H](CCCCN)C(=O)N[C@@H](CCCNC(=N)N)C(=O)N[C@@H](CCCNC(=N)N)C(=O)N[C@@H](CCC(N)=O)C(=O)N[C@@H](CCCNC(=N)N)C(=O)N[C@@H](CCCNC(=N)N)C(=O)N[C@@H](CCCNC(=N)N)C(=O)N[C@@H](CCCNC(=N)N)C(=O)N[C@@H](CC(C)C)C(=O)N[C@@H](CCCCN)C(=O)N[C@@H](CCC(N)=O)C(=O)N[C@]1(C)CCCCCCC=CCCC[C@@](C)(C(=O)N[C@@H](CCCNC(=N)N)C(=O)N[C@@H](CCCCN)C(=O)N[C@@H](CCCNC(=N)N)C(N)=O)NC(=O)[C@H](CCCCN)NC(=O)[C@H](CCC(=O)O)NC(=O)[C@H](C(C)C)NC(=O)[C@H](CC(=O)O)NC(=O)[C@H](CCC(=O)O)NC(=O)[C@H](CC(C)C)NC1=O
Kd: 1410 nM

B10: i7-01s-10 (Ac-[Tat]-RLIQ(R8)REDREK(S5)RAR-NH2) (peptide)
peptide: Ac-YGRKKRRQRRRRLIQ[R8]REDREK[S5]RAR-NH2
modifications: staple 16-23
SMILES: CC[C@H](C)[C@H](NC(=O)[C@H](CC(C)C)NC(=O)[C@H](CCCNC(=N)N)NC(=O)[C@H](CCCNC(=N)N)NC(=O)[C@H](CCCNC(=N)N)NC(=O)[C@H](CCCNC(=N)N)NC(=O)[C@H](CCC(N)=O)NC(=O)[C@H](CCCNC(=N)N)NC(=O)[C@H](CCCNC(=N)N)NC(=O)[C@H](CCCCN)NC(=O)[C@H](CCCCN)NC(=O)[C@H](CCCNC(=N)N)NC(=O)CNC(=O)[C@H](Cc1ccc(O)cc1)NC(C)=O)C(=O)N[C@@H](CCC(N)=O)C(=O)N[C@]1(C)CCCCCCC=CCCC[C@@](C)(C(=O)N[C@@H](CCCNC(=N)N)C(=O)N[C@@H](C)C(=O)N[C@@H](CCCNC(=N)N)C(N)=O)NC(=O)[C@H](CCCCN)NC(=O)[C@H](CCC(=O)O)NC(=O)[C@H](CCCNC(=N)N)NC(=O)[C@H](CC(=O)O)NC(=O)[C@H](CCC(=O)O)NC(=O)[C@H](CCCNC(=N)N)NC1=O
Kd: 2030 nM
